Test results reported in publication doi:10.1101/2024.08.23.608890 (bioRxiv, 2024).

Target: T1, Paeniclostridium sordellii lethal toxin TcsL, receptor binding domain (RBD) (Paeniclostridium sordellii, UniProt Q46342)
T1 sequence: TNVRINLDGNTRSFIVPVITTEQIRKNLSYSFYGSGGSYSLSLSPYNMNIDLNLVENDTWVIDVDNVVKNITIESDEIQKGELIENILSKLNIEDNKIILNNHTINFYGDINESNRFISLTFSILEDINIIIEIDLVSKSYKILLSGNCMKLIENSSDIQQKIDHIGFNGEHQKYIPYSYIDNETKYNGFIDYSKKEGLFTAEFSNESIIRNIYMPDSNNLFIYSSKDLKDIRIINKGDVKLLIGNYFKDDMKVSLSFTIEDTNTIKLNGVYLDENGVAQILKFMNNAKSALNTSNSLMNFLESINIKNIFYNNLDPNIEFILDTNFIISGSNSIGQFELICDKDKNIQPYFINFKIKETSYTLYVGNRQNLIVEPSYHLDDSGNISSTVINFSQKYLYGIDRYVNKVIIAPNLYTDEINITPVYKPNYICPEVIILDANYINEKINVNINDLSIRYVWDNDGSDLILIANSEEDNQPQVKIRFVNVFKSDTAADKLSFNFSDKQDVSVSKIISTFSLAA
Assay: SPR

B1: B4, ProteinMPNN-optimized de novo designed TcsL-binding miniprotein (designed binder)
chain: MSGTEEIIKEIKKMKEKGEKASSIIDLLKKAGYSEIAKKAELAALKSENMTEAAAEKAIEELK
B1 was tested, and the Kd was 0.057 nM.
